No end group written: not given here.
Assays:
[1] = target: T1, guinea pig proteinase-activated receptor 4 (PAR-4) (guinea pig (Cavia porcellus)); test: cell-based or functional assay
T1 chain: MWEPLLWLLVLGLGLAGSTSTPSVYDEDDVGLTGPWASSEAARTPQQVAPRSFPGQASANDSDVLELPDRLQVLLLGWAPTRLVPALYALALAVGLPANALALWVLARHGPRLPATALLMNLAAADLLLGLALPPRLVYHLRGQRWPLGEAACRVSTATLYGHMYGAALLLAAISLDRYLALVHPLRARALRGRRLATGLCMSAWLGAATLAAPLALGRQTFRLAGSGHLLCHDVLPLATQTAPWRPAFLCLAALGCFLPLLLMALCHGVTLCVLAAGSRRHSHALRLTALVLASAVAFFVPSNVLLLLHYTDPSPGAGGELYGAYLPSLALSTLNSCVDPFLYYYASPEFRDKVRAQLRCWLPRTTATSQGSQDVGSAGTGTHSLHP

human PAR-4 = target: T2, human PAR-4 (human, UniProt Q96RI0 48-385); test: cell-based or functional assay
T2 sequence (looked up): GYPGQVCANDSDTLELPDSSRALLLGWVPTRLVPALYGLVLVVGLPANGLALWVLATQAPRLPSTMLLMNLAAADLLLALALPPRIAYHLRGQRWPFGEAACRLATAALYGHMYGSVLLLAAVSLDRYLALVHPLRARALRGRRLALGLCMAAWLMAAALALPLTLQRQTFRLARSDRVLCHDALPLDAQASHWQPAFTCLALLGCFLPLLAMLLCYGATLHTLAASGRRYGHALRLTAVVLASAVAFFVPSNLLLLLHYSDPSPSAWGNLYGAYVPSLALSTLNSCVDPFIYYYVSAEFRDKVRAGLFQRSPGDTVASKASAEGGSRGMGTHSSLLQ

aggregation of guinea pig gel filtered platelets, EC50 [1]: 174 µM | aggregation of human gel filtered platelets, EC50 (human PAR-4): 140 µM
B1: guinea pig PAR-4 activating peptide SFPGQA-NH2 (peptide)
peptide: SFPGQA-NH2

From patent publication US20060141451A1 (ORTHO MCNEIL PHARMACEUTICAL, published 2006)
